Results taken from patent US20150258192A1, “COMPOSITIONS AND METHODS FOR PREVENTING OR TREATING CHRONIC LUNG ALLOGRAFT DYSFUNCTION (CLAD) AND IDIOPATHIC PULMONARY FIBROSIS (IPF)” (priority 2014, published 2015).
No end group written: not given here.

Columns and labels:
Assay in all cases: Kinase Profiling Assay
Assay type in all cases: biochemical
Conditions in all cases: peptide 100 μM
Arg(h) = Arg(h) (Homo sapiens, UniProt P42684)
Method in brief: (§1)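 Kinase inhibition by MK2 inhibitory peptides was profiled radiometrically, with substrate phosphorylation from labeled ATP read by scintillation after capture on a charged filter. Values are relative to 100% activity and measured in duplicate.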

CDK7/cyclinH/MAT1(h) = CDK7/cyclinH/MAT1(h) (Homo sapiens, UniProt P50613)
Method in brief: as §1

Flt1(h) = Flt1(h) (Homo sapiens, UniProt P17948)
Flt1(h), sequence (P17948 27-1338): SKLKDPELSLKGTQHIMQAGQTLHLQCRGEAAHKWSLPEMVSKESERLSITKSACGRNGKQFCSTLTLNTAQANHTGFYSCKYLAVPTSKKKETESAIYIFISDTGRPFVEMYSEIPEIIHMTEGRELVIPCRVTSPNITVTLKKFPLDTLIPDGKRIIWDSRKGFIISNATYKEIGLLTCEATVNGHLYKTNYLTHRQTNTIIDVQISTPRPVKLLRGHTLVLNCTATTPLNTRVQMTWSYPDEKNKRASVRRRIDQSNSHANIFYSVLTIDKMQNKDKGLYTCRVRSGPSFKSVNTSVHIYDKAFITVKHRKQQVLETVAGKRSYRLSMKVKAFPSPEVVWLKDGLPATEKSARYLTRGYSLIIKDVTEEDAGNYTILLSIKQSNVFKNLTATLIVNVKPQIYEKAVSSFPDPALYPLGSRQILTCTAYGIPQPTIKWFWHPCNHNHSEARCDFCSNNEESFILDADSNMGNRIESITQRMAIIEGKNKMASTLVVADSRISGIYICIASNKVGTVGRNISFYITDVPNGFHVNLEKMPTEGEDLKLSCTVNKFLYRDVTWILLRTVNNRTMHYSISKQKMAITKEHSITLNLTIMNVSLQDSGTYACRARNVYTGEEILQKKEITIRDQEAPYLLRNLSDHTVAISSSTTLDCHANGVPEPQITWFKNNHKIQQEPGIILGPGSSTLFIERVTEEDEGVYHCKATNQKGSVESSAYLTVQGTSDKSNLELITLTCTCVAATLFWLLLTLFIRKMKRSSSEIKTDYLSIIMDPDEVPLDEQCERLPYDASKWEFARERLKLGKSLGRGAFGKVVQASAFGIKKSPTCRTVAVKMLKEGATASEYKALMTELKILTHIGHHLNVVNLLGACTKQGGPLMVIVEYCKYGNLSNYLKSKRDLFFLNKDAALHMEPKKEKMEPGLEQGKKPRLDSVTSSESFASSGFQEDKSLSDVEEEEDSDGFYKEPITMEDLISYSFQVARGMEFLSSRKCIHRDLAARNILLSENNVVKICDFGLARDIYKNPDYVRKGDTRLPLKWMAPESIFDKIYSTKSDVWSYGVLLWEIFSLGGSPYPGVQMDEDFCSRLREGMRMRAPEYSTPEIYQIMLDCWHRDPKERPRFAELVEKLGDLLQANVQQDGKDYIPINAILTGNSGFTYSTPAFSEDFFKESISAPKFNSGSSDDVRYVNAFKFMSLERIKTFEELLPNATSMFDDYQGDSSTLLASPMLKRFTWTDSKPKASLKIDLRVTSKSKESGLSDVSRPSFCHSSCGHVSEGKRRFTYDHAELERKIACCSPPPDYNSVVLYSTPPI
Method in brief: as §1

Mnk2(h) = molecular target: T1, Mnk2(h) (Homo sapiens, UniProt Q9HBH9)
T1 construct: purchased Millipore
T1 sequence (Q9HBH9 whole entry): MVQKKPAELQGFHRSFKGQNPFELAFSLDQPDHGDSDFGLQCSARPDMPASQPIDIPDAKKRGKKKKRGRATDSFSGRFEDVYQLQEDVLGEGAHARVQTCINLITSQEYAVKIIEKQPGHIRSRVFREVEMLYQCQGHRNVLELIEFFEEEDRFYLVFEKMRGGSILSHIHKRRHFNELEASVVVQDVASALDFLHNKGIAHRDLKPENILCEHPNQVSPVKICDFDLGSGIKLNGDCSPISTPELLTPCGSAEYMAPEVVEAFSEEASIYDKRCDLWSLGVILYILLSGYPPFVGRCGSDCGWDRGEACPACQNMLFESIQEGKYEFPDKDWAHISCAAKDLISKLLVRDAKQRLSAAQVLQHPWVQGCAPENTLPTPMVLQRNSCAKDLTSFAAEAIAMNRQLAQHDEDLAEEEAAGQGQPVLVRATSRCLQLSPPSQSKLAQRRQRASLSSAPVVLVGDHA
Method in brief: as §1

PKBα(h) = PKBα(h) (Homo sapiens, UniProt P31749)
PKBα(h), sequence (P31749 whole entry): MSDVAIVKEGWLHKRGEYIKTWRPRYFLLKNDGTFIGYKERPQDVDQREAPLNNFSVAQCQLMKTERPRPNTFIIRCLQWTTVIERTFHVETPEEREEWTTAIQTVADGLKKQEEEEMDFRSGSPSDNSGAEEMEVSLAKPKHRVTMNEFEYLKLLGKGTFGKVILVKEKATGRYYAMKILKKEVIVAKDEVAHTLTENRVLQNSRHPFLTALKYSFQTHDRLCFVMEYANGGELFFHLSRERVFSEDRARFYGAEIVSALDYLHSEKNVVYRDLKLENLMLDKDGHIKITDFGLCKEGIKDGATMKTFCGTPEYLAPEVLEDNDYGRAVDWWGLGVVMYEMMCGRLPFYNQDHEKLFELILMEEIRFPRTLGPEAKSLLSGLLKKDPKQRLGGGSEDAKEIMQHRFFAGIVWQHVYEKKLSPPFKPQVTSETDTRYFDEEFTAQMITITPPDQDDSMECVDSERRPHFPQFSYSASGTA
Method in brief: as §1

IKKβ(h) = molecular target: T2, IKKβ(h) (Homo sapiens, UniProt O14920)
T2 construct: purchased Millipore
T2 sequence (O14920 1-756): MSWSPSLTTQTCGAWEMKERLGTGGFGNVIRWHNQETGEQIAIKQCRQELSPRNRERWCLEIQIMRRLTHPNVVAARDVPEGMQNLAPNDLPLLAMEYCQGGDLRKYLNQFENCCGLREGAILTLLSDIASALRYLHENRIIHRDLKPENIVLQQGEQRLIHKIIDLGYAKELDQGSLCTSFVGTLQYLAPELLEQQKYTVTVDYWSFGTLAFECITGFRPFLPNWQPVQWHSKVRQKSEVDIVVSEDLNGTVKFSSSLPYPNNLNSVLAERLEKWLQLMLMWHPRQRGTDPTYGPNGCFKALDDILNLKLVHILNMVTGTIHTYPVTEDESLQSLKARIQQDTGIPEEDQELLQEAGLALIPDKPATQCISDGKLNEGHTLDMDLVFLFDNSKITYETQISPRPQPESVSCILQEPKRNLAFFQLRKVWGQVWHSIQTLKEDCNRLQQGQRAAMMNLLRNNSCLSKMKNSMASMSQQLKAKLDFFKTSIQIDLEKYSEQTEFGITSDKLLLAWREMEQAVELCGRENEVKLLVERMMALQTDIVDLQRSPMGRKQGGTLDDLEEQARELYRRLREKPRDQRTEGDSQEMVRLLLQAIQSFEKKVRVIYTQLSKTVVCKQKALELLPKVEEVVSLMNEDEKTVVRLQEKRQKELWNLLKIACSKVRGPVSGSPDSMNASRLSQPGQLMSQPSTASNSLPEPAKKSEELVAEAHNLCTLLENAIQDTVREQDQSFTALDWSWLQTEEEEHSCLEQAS
Method in brief: as §1

CDK6/cyclinD3(h) = CDK6/cyclinD3(h) (Homo sapiens, UniProt Q00534)
CDK6/cyclinD3(h), sequence (Q00534 whole entry): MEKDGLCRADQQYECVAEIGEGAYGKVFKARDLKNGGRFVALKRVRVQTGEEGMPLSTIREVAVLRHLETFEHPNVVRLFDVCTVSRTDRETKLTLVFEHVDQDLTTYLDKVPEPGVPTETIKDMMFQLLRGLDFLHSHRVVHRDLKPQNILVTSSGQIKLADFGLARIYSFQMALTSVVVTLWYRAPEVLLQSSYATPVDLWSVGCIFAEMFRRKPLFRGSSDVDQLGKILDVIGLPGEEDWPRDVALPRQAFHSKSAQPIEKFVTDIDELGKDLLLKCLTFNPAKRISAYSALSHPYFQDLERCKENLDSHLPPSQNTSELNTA
CDK6/cyclinD3(h), sequence (P30281 whole entry partner): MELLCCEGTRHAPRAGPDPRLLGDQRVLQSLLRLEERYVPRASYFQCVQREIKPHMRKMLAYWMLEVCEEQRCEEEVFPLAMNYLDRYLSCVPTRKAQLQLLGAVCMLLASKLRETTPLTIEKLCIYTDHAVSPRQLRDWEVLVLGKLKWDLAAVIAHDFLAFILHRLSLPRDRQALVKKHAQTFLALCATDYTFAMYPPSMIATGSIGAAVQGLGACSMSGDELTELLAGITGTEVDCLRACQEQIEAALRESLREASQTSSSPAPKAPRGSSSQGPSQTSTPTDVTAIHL
Method in brief: as §1

CaMKIIβ(h) = CaMKIIβ(h) (Homo sapiens, UniProt Q13554)
CaMKIIβ(h), sequence (Q13554 whole entry): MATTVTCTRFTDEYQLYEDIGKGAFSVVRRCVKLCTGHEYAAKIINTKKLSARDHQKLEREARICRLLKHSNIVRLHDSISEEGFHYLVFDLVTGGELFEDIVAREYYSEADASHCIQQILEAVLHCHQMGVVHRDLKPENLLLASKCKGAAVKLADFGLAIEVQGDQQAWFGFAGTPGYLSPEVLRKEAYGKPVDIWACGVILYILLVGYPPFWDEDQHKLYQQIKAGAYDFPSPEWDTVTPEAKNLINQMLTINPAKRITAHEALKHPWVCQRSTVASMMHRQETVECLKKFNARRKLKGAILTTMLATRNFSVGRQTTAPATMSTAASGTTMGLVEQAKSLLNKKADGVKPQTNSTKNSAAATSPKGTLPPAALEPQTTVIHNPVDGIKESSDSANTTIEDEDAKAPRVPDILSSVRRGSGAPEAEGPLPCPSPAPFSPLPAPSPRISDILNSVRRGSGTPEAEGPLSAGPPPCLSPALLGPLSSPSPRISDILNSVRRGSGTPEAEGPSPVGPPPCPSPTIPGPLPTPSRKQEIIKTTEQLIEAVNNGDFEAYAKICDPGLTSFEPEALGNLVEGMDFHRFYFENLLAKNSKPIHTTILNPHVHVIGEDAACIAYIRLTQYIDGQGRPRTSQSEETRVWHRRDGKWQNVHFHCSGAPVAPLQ
Method in brief: as §1

NEK7(h) = molecular target: T3, NEK7(h) (Homo sapiens, UniProt Q8TDX7)
T3 construct: purchased Millipore
T3 sequence (Q8TDX7 whole entry): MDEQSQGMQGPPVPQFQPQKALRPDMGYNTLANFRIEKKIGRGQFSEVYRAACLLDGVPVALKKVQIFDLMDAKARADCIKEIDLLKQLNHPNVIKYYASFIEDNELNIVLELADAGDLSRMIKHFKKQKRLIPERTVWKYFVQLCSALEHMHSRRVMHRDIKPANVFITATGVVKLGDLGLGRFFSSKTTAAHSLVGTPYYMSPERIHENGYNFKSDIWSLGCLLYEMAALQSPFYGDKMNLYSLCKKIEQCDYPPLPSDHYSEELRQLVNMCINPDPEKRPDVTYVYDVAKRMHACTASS
Method in brief: as §1

GCK(h) = molecular target: T4, GCK(h) (Homo sapiens, UniProt Q12851)
T4 construct: purchased Millipore
T4 sequence (Q12851 1-820): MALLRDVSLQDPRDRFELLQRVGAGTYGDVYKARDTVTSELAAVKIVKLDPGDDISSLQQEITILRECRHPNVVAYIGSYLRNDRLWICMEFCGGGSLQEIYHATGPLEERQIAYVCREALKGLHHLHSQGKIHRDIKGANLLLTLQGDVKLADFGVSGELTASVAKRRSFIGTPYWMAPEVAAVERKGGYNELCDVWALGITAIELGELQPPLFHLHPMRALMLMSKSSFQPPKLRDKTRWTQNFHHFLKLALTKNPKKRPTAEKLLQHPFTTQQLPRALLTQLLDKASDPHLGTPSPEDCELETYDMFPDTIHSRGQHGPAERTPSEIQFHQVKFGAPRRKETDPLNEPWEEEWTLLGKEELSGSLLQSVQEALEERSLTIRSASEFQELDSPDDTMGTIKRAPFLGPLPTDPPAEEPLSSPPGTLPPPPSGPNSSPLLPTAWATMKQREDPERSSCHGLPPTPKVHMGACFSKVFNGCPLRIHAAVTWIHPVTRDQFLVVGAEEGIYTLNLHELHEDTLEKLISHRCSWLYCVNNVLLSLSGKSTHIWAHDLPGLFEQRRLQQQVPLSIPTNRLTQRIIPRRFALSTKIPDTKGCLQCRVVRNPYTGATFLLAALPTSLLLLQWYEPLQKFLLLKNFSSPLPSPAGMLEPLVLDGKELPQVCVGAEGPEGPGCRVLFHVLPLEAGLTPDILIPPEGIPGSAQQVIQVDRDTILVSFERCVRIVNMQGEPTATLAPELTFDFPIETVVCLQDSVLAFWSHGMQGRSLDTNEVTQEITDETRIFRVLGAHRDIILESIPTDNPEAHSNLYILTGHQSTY
Method in brief: as §1

ZAP-70(h) = molecular target: T5, ZAP-70(h) (Homo sapiens, UniProt P43403)
T5 sequence (P43403 1-619): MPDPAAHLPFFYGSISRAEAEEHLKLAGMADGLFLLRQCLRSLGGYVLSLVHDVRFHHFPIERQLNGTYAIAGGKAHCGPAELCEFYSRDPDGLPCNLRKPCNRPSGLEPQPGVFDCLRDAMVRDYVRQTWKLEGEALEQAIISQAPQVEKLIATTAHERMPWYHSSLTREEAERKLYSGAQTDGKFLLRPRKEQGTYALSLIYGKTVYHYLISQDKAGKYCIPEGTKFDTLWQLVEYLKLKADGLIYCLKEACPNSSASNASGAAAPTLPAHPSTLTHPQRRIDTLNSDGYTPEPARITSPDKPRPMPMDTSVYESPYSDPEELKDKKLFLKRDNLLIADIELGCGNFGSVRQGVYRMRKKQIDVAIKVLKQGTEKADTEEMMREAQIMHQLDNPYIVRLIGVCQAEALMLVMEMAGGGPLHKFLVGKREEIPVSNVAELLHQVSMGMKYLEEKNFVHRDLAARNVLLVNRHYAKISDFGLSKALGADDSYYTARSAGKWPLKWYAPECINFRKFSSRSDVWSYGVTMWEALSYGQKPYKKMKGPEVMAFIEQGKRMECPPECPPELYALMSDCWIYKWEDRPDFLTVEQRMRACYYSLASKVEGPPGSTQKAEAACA
Method in brief: as §1

Arg(h), sequence (P42684 whole entry): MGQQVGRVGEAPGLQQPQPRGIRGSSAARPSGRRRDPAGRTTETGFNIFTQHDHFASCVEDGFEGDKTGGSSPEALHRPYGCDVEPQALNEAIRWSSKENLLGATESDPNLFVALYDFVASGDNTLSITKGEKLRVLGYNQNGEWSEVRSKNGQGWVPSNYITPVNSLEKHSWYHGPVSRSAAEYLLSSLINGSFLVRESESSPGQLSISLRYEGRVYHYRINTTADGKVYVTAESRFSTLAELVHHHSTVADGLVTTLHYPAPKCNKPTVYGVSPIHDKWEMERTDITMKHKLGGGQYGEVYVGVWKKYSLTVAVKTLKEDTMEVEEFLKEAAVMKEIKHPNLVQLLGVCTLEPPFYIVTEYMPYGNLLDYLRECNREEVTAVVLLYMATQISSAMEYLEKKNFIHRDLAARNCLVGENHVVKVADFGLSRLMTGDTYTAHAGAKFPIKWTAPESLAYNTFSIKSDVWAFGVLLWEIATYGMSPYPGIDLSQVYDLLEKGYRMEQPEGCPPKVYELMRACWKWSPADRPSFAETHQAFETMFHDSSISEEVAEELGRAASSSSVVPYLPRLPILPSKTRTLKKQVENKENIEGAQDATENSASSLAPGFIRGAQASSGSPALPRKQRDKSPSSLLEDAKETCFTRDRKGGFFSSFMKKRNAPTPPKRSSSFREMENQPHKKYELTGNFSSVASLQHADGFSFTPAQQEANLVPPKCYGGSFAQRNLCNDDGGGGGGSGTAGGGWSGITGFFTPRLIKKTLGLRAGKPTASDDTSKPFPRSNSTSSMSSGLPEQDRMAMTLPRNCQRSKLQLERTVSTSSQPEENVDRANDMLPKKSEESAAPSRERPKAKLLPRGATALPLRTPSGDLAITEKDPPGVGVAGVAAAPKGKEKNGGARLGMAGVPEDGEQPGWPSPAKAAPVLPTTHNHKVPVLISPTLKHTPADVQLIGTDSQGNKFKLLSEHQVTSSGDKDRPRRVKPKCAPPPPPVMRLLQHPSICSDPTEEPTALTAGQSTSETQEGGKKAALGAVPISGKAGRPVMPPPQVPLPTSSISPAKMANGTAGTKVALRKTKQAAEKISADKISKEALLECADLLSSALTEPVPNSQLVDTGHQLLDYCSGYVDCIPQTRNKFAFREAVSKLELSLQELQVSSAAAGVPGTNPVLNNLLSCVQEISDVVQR

Sequence | % activity (Arg(h)) | % activity (CDK7/cyclinH/MAT1(h)) | % activity (Flt1(h)) | % activity (Mnk2(h)) | % activity (PKBα(h)) | % activity (IKKβ(h)) | % activity (CDK6/cyclinD3(h)) | % activity (CaMKIIβ(h)) | % activity (NEK7(h)) | % activity (GCK(h)) | % activity (ZAP-70(h))
FAKLAARLYRKALARQLGVAA [MMI-0300] | 72% | 65% | 69% | 89% | 57% | 84% | 86% | 2% | 84% | 70% | 75%
HRRIKAWLKKIKALARQLGVAA (Mammal) [MMI-0500] | 22% | 15% | 27% | 6% | 30% | 71% | 23% | 3% | 89% | 30% | 1%
KAFAKLAARLYRKALARQLGVAA [MMI-0400] | 84% | 47% | 48% | 86% | 67% | 84% | 85% | 11% | 87% | 66% | 33%
YARAAARQARAKALARQLGVAA [MMI-0100] | – | – | – | – | – | – | – | – | – | 98% | 79%
YARAAARQARAKALNRQLGVA (Mammal) [MMI-0200] | 82% | 67% | 96% | – | 110% | – | 100% | 53% | 96% | 99% | 58%
